In publication PMC10143413:

What was measured:
[1] = biological target: Pyruvate kinase PKM1, purified from rabbit skeletal muscle (rabbit) (UniProt P11974); test: SPR; Biacore T200, 25 °C; PKM1 amine-coupled to a CM5 chip, creatine kinase as analyte in 0.05 M potassium phosphate buffer pH 7.4, 10 µL/min for 5 min; global fit to the 1:1 binding model
[2] = biological target: Lactate dehydrogenase, purified from rabbit skeletal muscle (rabbit) (UniProt P13491); test: SPR; Biacore T200, 25 °C; GAPDH, LDH or aldolase A amine-coupled to a CM5 chip, PKM1 as analyte in 0.05 M potassium phosphate buffer pH 7.4, 10 µL/min for 5 min; global fit to the 1:1 binding model
[3] = biological target: Aldolase A, purified from rabbit skeletal muscle (rabbit) (UniProt P00883); test: as above
Sequence of Aldolase A, purified from rabbit skeletal muscle (rabbit) (P00883 whole entry): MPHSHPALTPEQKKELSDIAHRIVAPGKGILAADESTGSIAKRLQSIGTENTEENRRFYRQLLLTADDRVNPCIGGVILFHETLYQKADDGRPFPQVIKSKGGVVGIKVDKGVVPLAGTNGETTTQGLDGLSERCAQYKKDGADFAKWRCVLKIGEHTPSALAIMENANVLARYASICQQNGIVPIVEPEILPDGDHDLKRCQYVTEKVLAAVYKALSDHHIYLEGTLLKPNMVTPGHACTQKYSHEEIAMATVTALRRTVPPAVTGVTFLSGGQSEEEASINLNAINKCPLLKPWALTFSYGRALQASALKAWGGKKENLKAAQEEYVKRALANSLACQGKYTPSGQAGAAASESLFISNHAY

Sequence of Pyruvate kinase PKM1, purified from rabbit skeletal muscle, P11974-1 1-531 (enzyme; other documents disagree on this pair) (P11974 whole entry): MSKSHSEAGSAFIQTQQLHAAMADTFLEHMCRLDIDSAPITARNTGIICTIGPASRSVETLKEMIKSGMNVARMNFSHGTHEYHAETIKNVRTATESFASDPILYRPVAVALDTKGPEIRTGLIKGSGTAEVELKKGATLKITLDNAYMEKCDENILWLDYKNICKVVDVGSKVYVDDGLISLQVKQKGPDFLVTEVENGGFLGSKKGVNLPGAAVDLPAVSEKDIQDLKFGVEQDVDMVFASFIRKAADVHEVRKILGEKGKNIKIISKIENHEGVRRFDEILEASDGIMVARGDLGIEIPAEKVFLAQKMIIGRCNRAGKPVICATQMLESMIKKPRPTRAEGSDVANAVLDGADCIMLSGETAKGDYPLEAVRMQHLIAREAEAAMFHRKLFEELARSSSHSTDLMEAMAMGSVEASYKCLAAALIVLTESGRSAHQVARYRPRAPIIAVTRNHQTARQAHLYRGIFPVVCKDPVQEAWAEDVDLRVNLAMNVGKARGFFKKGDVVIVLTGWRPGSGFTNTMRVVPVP
Sequence of Pyruvate kinase PKM1, purified from rabbit skeletal muscle (P11974 whole entry): as above
Sequence of Pyruvate kinase PKM1, purified from rabbit skeletal muscle (rabbit) (P11974 whole entry): as above

Creatine kinase from rabbit muscle (from UniProt P00563 1-381) (enzyme)
Kd [1]: 10.7 nM | koff [1]: 0.000924 s⁻¹ | kon [1]: 86400 M⁻¹ s⁻¹

Pyruvate kinase PKM1, purified from rabbit skeletal muscle (from UniProt P11974-1 1-531) (enzyme)
Kd [2]: 4800 nM | koff [2]: 0.00657 s⁻¹ | kon [2]: 1370 M⁻¹ s⁻¹

Pyruvate kinase PKM1, purified from rabbit skeletal muscle, P11974-1 1-531 (enzyme; other documents disagree on this pair)
Kd [3]: 1410 nM | koff [3]: 0.00238 s⁻¹ | kon [3]: 1690 M⁻¹ s⁻¹
